Experimental data published in publication PMC8894357 (2022).

Biological target: T1, Human β-catenin, GST tagged (human, UniProt P35222 1-781)
T1 chain: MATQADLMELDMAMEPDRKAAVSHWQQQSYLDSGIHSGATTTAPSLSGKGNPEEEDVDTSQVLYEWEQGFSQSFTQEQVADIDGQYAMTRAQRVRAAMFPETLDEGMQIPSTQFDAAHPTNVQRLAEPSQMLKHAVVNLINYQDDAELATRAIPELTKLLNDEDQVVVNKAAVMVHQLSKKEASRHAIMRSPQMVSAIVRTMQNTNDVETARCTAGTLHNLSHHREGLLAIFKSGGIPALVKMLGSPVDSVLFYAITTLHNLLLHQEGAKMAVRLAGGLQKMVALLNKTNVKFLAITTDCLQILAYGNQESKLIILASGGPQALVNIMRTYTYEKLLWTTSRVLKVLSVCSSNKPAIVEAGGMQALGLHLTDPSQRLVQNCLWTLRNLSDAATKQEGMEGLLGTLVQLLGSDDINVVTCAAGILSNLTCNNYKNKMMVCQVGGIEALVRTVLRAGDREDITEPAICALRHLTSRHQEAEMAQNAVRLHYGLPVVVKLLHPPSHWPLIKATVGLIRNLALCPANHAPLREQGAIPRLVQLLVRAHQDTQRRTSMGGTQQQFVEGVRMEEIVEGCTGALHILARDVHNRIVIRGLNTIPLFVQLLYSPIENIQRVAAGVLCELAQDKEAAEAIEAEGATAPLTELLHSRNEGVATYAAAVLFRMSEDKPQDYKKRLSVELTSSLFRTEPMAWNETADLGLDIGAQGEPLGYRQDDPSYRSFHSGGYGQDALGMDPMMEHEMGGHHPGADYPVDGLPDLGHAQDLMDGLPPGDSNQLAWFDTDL

Kd: 35 nM
B1: αE-catenin, monomeric fraction (mouse, full length, His(6x) tagged) (natural protein)
chain: MTAVHAGNINFKWDPKSLEIRTLAVERLLEPLVTQVTTLVNTNSKGPSNKKRGRSKKAHVLAASVEQATENFLEKGDKIAKESQFLKEELVVAVEDVRKQGDLMKSAAGEFADDPCSSVKRGNMVRAARALLSAVTRLLILADMADVYKLLVQLKVVEDGILKLRNAGNEQDLGIQYKALKPEVDKLNIMAAKRQQELKDVGNRDQMAAARGILQKNVPILYTASQACLQHPDVAAYKANRDLIYKQLQQAVTGISNAAQATASDDAAQHQGGSGGELAYALNNFDKQIIVDPLSFSEERFRPSLEERLESIISGAALMADSSCTRDDRRERIVAECNAVRQALQDLLSEYMGNAGRKERSDALNSAIDKMTKKTRDLRRQLRKAVMDHVSDSFLETNVPLLVLIEAAKNGNEKEVKEYAQVFREHANKLIEVANLACSISNNEEGVKLVRMSASQLEALCPQVINAALALAAKPQSKLAQENMDLFKEQWEKQVRVLTDAVDDITSIDDFLAVSENHILEDVNKCVIALQEKDVDGLDRTAGAIRGRAARVIHVVTSEMDNYEPGVYTEKVLEATKLLSNTVMPRFTEQVEAAVEALSSDPAQPMDENEFIDASRLVYDGIRDIRKAVLMIRTPEELDDSDFETEDFDVRSRTSVQTEDDQLIAGQSARAIMAQLPQEQKAKIAEQVASFQEEKSKLDAEVSKWDDSGNDIIVLAKQMCMIMMEMTDFTRGKGPLKNTSDVISAAKKIAEAGSRMDKLGRTIADHCPDSACKQDLLAYLQRIALYCHQLNICSKVKAEVQNLGGELVVSGVDSAMSLIQAAKNLMNAVVQTVKASYVASTKYQKSQGMASLNLPAVSWKMKAPEKKPLVKREKQDETQTKIKRASQKKHVNPVQALSEFKAMDSI
